Experimental data taken from patent US20160009799A1 (ORDER MADE MEDICAL RESEARCH, published 2016).
Each block holds one binder with its values, some of them ahead of it.

Assays:
[1] = molecular target: T1, SLC6A6 (solute carrier family 6 (neurotransmitter transporter, taurine), member 6) on human colorectal cancer … (human, UniProt P31641 1-620); assay: flow cytometry on 10 colorectal cancer cell lines, antibody at 1 ug/mL
T1 construct: Endogenous protein on ten colorectal cancer cell lines (Caco-2, COLO201, DLD-1, HCT15, HCT116, HT-29, LoVo, SW480, SW620, WiDr); also called native SLC6A6
T1 sequence: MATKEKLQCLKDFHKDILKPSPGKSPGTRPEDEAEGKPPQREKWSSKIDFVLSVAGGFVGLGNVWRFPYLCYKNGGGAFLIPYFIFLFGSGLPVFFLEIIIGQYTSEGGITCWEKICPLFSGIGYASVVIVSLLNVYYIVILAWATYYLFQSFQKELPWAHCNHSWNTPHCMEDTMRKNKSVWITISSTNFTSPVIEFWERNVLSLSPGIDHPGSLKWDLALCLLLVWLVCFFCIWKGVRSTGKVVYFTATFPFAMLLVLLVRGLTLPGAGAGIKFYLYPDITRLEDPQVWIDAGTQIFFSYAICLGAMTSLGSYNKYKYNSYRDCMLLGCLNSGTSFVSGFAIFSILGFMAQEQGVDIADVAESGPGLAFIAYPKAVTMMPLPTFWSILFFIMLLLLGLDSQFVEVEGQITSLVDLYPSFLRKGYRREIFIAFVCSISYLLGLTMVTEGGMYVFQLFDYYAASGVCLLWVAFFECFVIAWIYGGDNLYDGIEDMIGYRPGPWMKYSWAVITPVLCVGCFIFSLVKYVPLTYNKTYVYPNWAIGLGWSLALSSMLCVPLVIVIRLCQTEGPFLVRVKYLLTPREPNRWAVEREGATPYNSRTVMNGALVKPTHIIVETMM
Protocol: Ten lines of colorectal cancer cells were each cultured to reach 90% confluency. The cells of each line were washed twice with PBS, detached with a scraper and collected into a 1.5 mL tube. 4B9b and 5H12d antibodies were each added to give a final concentration of 1 μg/mL, followed by reaction for 60 minutes. After washing twice with PBS+2% FBS, AlexaFluor 488-labeled goat anti-mouse IgG (Invitrogen) was added as a 1/1000 dilution in PBS+2% FBS, followed by reaction for 30 minutes. After washing twice with PBS+2% PBS(FBS?), the cells were analyzed by Guava Flow Cytometry (Millipore).

[2] = molecular target: T2, partial protein of the extracellular region of SLC6A6 (amino acid residues 143 to 216), His tag at the … (human, UniProt P31641 143-216); assay: ELISA on plate-bound recombinant SLC6A6 partial protein, antibody 0 to 40 ug/mL
T2 construct: also called SLC6A6 partial protein for screening; recombinant protein obtained in (6); not shown: His tag added to the C-terminal end (pET32 vector)
T2 sequence: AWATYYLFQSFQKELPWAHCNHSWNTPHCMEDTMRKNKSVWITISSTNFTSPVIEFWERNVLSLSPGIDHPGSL
Protocol: The recombinant protein obtained in (6) above (10 μg/ml) was dispensed in 100 μL volumes into MaxiSorp 96-well plates (Nunc) and adsorbed onto the plates at room temperature for 1 hour. After adsorption, each well was washed with TBS-T (25 mM Tris, 150 mM NaCl, 0.05% (v/v) Tween 20, pH 7.4) and charged with skimmed milk (GIBCO), which had been diluted at a concentration of 5% with TBS-T, to conduct blocking for 30 minutes at room temperature. After each well was washed three times with 200 μL TBS-T, […] ELISA plates in a volume of 100 μL per well, followed by reaction at room temperature for 1 hour. Each well was washed three times with […] TBS-T.
For use as a secondary antibody, anti-mouse IgG polyclonal antibody-HRP label (BETHYL) was diluted 5,000-fold with TBS-T. The above antibody dilution was added in a volume of 100 μL per well and reacted at room temperature for 30 minutes. Each well was washed three times with 200 μL TBS-T. Orthophenylenediamine (Sigma) was diluted with 50 mM carbonate-citrate buffer (pH 5.0) to give a final concentration of 0.5 mg/mL and mixed with 1/10,000 volumes of 35% (w/w) aqueous hydrogen peroxide (WAKO). […] The absorbance at 492 nm was measured with a plate reader (SpectraMax Plus 384, Molecular Devices) to analyze antibody titers, which were then used for selection of mice to be used for cell fusion. […]

- binding result [1]: binds
B1: 4B9b antibody (produced by Mouse-Mouse hybridoma 4B9b, FERM BP-11413) (antibody, mouse IgM, V domains shown)
VH: QVKLQQSGAELMKPGASVKISCKATGYTFSRYWIEWVKQRPGHGLEWIGEILPGSGSTNYNEKFKGKATFTADTSSNTAYMQLSSLTSEDSAVYYCARGGFLGHYGFAYWGQGTLVTVSA
VL: DIQLTQSPTTMAASPGEKITITCSASSSISSNYLHWYQQKPGFSPKLLIYRTSNLASGVPARFSGSGSGTSYSLTIGTMEAEDVATYYCQQGSSIPYTFGGGTKLEIK
notes: also called anti-SLC6A6 antibody, 4B9b

- binding result [2]: binds
B2: mouse IgG1-converted anti-SLC6A6 antibody (4B9b) (antibody, V domains shown)
VH: B1 VH
VL: DIQLTQSPTTMAASPGEKITITCSASSSISSNYLHWYQQKPGFSPKLLIYRTSNLASGVPARFSGSGSGTSYSLTIGTMEAEDVATYYCQQGSSIPYTFGGGTKLEIKR
notes: Expressed in Cos7 cells and purified on Protein G; also called mouse IgG-converted antibody; mouse IgG-chimerized antibody
